In patent US7951562B2, “Method for glycosylating hydroxylysine residues in polypeptides or peptides” (Oulun Yliopisto, priority 2000, dated 2011):

B1: LH1: recombinant human lysyl hydroxylase isoform 1, His-tagged (protein, listed as Homo sapiens)
chain: MRPLLLLALLGWLLLAEAKGDAKPEDNLLVLTVATKETEGFRRFKRSAQFFNYKIQALGLGEDWNVEKGTSAGGGQKVRLLKKALEKHADKEDLVILFTDSYDVLFASGPRELLKKFRQARSQVVFSAEELIYPDRRLETKYPVVSDGKRFLGSGGFIGYAPNLSKLVAEWEGQDSDSDQLFYTKIFLDPEKREQINITLDHRCRIFQNLDGALDEVVLKFEMGHVRARNLAYDTLPVLIHGNGPTKLQLNYLGNYIPRFWTFETGCTVCDEGLRSLKGIGDEALPTVLVGVFIEQPTPFVSLFFQRLLRLHYPQKHMRLFIHNHEQHHKAQVEEFLAQHGSEYQSVKLVGPEVRMANADARNMGADLCRQDRSCTYYFSVDADVALTEPNSLRLLIQQNKNVIAPLMTRHGRLWSNFWGALSADGYYARSEDYVDIVQGRRVGVWNVPYISNIYLIKGSALRGELQSSDLFHHSKLDPDMAFCANIRQQDVFMFLTNRHTLGHLLSLDSYRTTHLHNDLWEVFSNPEDWKEKYIHQNYTKALAGKLVETPCPDVYWFPIFTEVACDELVEEMEHFGQWSLGNNKDNRIQGGYENVPTIDIHMNQIGFEREWHKFLLEYIAPMTEKLYPGYYTRAQFDLAFVVRYKPDEQPSLMPHHDASTFTINIALNRVGVDYEGGGCRFLRYNCSIRAPRKGWTLMHPGRLTHYHEGLPTTRGTRYIAVSFVDP
modifications: His6 tag
notes: recombinant human lysyl hydroxylase isoform 1, His-tagged
B2: Mutation 1: human LH3 mutant, amino acids 25-231 normal, amino acids 232-356 modified (frame shift) (protein, listed as Homo sapiens)
chain: SDRPRGRDPVNPEKLLVITVATAETEGYLRFLRSAEFFNYTVRTLGLGEEWRGGDVARTVGGGQKVRWLKKEMEKYADREDMIIMFVDSYDVILAGSPTELLKKFVQSGSRLLFSAESFCWPEWGLAEQYPEVGTGKRFLNSGGFIGFATTIHQIVRQWKYKDDDDDQLFYTRLYLDPGLREKLSLNLDHKSRIFQNLNGALDEVVLSLIGTVCVSGTWPTTRSPLWSMETVPLSCSSTTWETTSPMAGLLREAVASATRTGGHSRGGSLPPGCFWPCLWNSLLRFCPASCSGCYSWTIPPTGSPFSCTTTRSSMNPTSLTPGRSSRTTSQL
B3: LH2a: recombinant human lysyl hydroxylase isoform 2, alternatively spliced form a (protein)
chain: ADSEKPSSIPTDKLLVITVATKESDGFHRFMQSAKYFNYTVKVLGQGEEWRGGDGINSIGGGQKVRLMKEVMEHYADQDDLVVMFTECFDVIFAGGPEEVLKKFQKANHKVVFAADGILWPDKRLADKYPVVHIGKRYLNSGGFIGYAPYVNRIVQQWNLQDNDDDQLFYTKVYIDPLKREAINITLDHKCKIFQTLNGAVDEVVLKFENGKARAKNTFYETLPVAINGNGPTKILLNYFGNYVPNSWTQDNGCTLCEFDTVDLSAVDVHPNVSIGVFIEQPTPFLPRFLDILLTLDYPKEALKLFIHNKEVYHEKDIKVFFDKAKHEIKTIKIVGPEENLSQAEARNMGMDFCRQDEKCDYYFSVDADVVLTNPRTLKILIEQNRKIIAPLVTRHGKLWSNFWGALSPDGYYARSEDYVDIVQGNRVGVWNVPYMANVYLIKGKTLRSEMNERNYFVRDKLDPDMALCRNAREMGVFMYISNRHEFGRLLSTANYNTSHYNNDLWQIFENPVDWKEKYINRDYSKIFTENIVEQPCPDVFWFPIFSEKACDELVEEMEHYGKWSGGKHHDSRISGGYENVPTDDIHMKQVDLENVWLDFIREFIAPVTLKVFAGYYTKGFALLNFVVKYSPERQRSLRPHHDASTFTINIALNNVGEDFQGGGCKFLRYNCSIESPRKGWSFMHPGRLTHLHEGLPVKNGTRYIAVSFIDP
modifications: left off: small tags and cut ends
notes: recombinant human lysyl hydroxylase isoform 2, alternatively spliced form a
B4: Mutation 4: human LH3 mutant, amino acids 25-668 normal, amino acids 669-698 modified (protein, listed as Homo sapiens)
chain: SDRPRGRDPVNPEKLLVITVATAETEGYLRFLRSAEFFNYTVRTLGLGEEWRGGDVARTVGGGQKVRWLKKEMEKYADREDMIIMFVDSYDVILAGSPTELLKKFVQSGSRLLFSAESFCWPEWGLAEQYPEVGTGKRFLNSGGFIGFATTIHQIVRQWKYKDDDDDQLFYTRLYLDPGLREKLSLNLDHKSRIFQNLNGALDEVVLKFDRNRVRIRNVAYDTLPIVVHGNGPTKLQLNYLGNYVPNGWTPEGGCGFCNQDRRTLPGGQPPPRVFLAVFVEQPTPFLPRFLQRLLLLDYPPDRVTLFLHNNEVFHEPHIADSWPQLQDHFSAVKLVGPEEALSPGEARDMAMDLCRQDPECEFYFSLDADAVLTNLQTLRILIEENRKVIAPMLSRHGKLWSNFWGALSPDEYYARSEDYVELVQRKRVGVWNVPYISQAYVIRGDTLRMELPQRDVFSGSDTDPDMAFCKSFRDKGIFLHLSNQHEFGRLLATSRYDTEHLHPDLWQIFDNPVDWKEQYIHENYSRALEGEGIVEQPCPDVYWFPLLSEQMCDELVAEMEHYGQWSGGRHEDSRLAGGYENVPTVDIHMKQVGYEDQWLQLLRTYVGPMTESLFPGYHTKARAVMNFVVRYRPDEQPSLRPHHAHPPSPSTLPSTTRAWTMREVAAASCATTV
B5: Mutation 2: human LH3 mutant, amino acids 25-520 normal, amino acids 521-738 missing (protein, listed as Homo sapiens)
chain: SDRPRGRDPVNPEKLLVITVATAETEGYLRFLRSAEFFNYTVRTLGLGEEWRGGDVARTVGGGQKVRWLKKEMEKYADREDMIIMFVDSYDVILAGSPTELLKKFVQSGSRLLFSAESFCWPEWGLAEQYPEVGTGKRFLNSGGFIGFATTIHQIVRQWKYKDDDDDQLFYTRLYLDPGLREKLSLNLDHKSRIFQNLNGALDEVVLKFDRNRVRIRNVAYDTLPIVVHGNGPTKLQLNYLGNYVPNGWTPEGGCGFCNQDRRTLPGGQPPPRVFLAVFVEQPTPFLPRFLQRLLLLDYPPDRVTLFLHNNEVFHEPHIADSWPQLQDHFSAVKLVGPEEALSPGEARDMAMDLCRQDPECEFYFSLDADAVLTNLQTLRILIEENRKVIAPMLSRHGKLWSNFWGALSPDEYYARSEDYVELVQRKRVGVWNVPYISQAYVIRGDTLRMELPQRDVFSGSDTDPDMAFCKSFRDKGIFLHLSNQHEFGRLLATSR

Legend:
Format in all cases: biochemical
[1] = tested on: hydroxylysyl residues in a calf skin gelatin substrate; experiment: GT (galactosyltransferase) activity of recombinant proteins expressed in E. coli; conditions: E. coli cell supernatant, FIG. 12
Source text: The galactosyltransferase activity can be assayed as described in Myllylä et al. (1975). The method is based on the transfer of radioactively (tritium) labelled galactose from UDP-galactose to hydroxylysyl residues in calf skin gelatin substrate and on the specific assay of the product of the enzyme reaction after alkaline hydrolysis.

[2] = tested on: galactosylhydroxylysyl residues in calf skin gelatin substrate; experiment: GGT (glucosyltransferase) activity of recombinant proteins expressed in Sf9 insect cells; conditions: for GGT activity in cell lysates: Sf9 cells, 72 hours after infection; for GGT activity, Dpm/plate: Sf9 cells transfected by LH3 constructs; for GGT activity, %: relative to nonmutated LH3 construct
Source text: The glucosyltransferase activity can be assayed as described in Myllylä et al. (1975). The method is based on the transfer of radioactively (tritium) labelled glucose from UDP-glucose to galactosylhydroxylysyl residues in calf skin gelatin substrate and on the specific assay of the product of the enzyme reaction after alkaline hydrolysis.
(§1) Commercially available baculovirus transfer vector pFastBacI in the BAC-TO-BAC™ expression system (Life technologies, Inc.) was modified to contain human LH1 signal peptide (Hautala et al., 1992) and His6 tag, and BamHI restriction site for insertion of the desired cDNA, nucleotides 289-2455 of LH3 cDNA (SEQ ID NO 6) (Valtavaara et al., 1998). The construct was confirmed by sequencing. The recombinant protein contains His tag at the amino-terminus after signal peptide cleavage. Insect cells were harvested 0-72 hours after infection and homogenized according to the protocol described earlier (Valtavaara et al., 1997).
Human LH1 signal peptide and His6 tag was inserted to the cDNA constructs of LH1 and LH2. The baculovirus transfer vector pFastBacI was modified so that human LH1 signal sequence followed by nine nucleotides of the amino-terminal end was ligated to the His6 tag followed by nucleotides for BamHI restriction site. The human cDNA sequence (LH1 or LH2) (SEQ ID NO 21, 23 and 25) starting from the likely amino-terminal end of the molecule was ligated to the BamHI site of the construct. Two expression constructs were generated for LH2, LH2a and LH2b (SEQ ID NO 23 and 25), both of them covered the nucleotides from 76 to 2267 (Valtavaara et al., 1997). The LH2b construct contained also the alternatively spliced exon sequence (Valtavaara 1999; Yeowell and Walker, 1999) between nucleotides 1500 and 1501 (SEQ ID NO 25). The constructs were confirmed by sequencing. Insect cells were grown and homogenized as described above.
(§2) LH activity was assayed by a method based on the hydroxylation-coupled decarboxylation of 2-oxo(1-^14C)glutarate (Kivirikko and Myllylä 1982), synthetic peptide […] was used as a substrate. GGT activity was assayed as described elsewhere (Myllylä et al. 1975). The method is based on the transfer of radioactively (tritium) labelled glucose from UDP-glucose to galactosylhydroxylysyl residues in calf skin gelatin substrate and on the specific assay of the product of the enzyme reaction after alkaline hydrolysis.

[3] = tested on: hydroxylysyl residues in a calf skin gelatin substrate; experiment: GT activity of recombinant proteins expressed with baculovirus vector in Sf9 cells; conditions: baculovirus vector in insect cells, not shown
Experimental: Baculovirus transfer vector pFastBacI in the BAC-TO-BAC™ expression system was used to produce LH3 protein in Sf9 cells. The cDNA construct is in Example 1. The recombinant protein contains the His tag at the amino terminus after signal peptide cleavage. The cells were homogenized as described elsewhere (Valtavaara et al. 1997).
GT and GGT activities were measured by a method based on the transfer of radioactively (tritium)-labeled sugar from UDP-sugar to hydroxylysyl or galactosylhydroxylysyl residues in a calf skin gelatin substrate, respectively (Myllylä et al. 1975). The specific detection of the reaction products was performed after alkaline hydrolysis.

[4] = tested on: synthetic peptide IKGIKGIKG; experiment: LH activity of human LH isoforms expressed in E. coli; conditions: E. coli expression system, data not shown
Source text: (§3) The lysyl hydroxylase activity can be assayed by a method based on the hydroxylation-coupled decarboxylation of 2-oxo(1-^14C)glutarate (Kivirikko and Myllylä 1982), synthetic peptide […] was used as a substrate.
PFastBacI constructs for human LH1, LH2a, LH2b and LH3 were cleaved with BamHI and Hind III restriction enzymes and coding regions were subcloned into same site in E. coli expression vector pQE30 containing (His)6 tag at the amino terminus. Insert for C. elegans LH (corresponding to amino acids 14-730 in cDNA) was generated by PCR and ligated into SacI-PstI site of pOE30 vector. Constructs were transformed into E. coli XL1-Blue strain. Cultures were grown to OD600 of 0.6 at 37° C. Protein expression was induced by adding 1 mM IPTG and incubation was proceed at 30° C. for 5 hours. Cells were harvested and stored at −20° C. For activity measurements cell pellet was suspended to lysis buffer (0.4 M NaCl, 0.5% Nonident and 20 mM Tris-HCl pH 7.8, at 20° C.) and incubated in the presence of lysozyme (50 μg/ml), DNAase (10 μg/ml) and RNAase (10 μg g/ml) at room temperature for 30 minutes. Lysis was completed by sonication. Cell debris was pelleted and supernatant was used in the measurements.

[5] = tested on: synthetic peptide IKGIKGIKG; experiment: LH (lysyl hydroxylase) activity of LH3 constructs expressed in Sf9 cells; conditions: for LH3 activity, Dpm/plate: Sf9 cells transfected by LH3 constructs; for LH3 activity, %: relative to nonmutated LH3 construct
Source text: as §3, §1, §2

Row | Molecule | generation of GT activity [1] | GGT activity in cell lysates [2] | generation of GT activity [3] | LH activity [4] | GGT activity, Dpm/plate [2] | GGT activity, % [2] | LH3 activity, Dpm/plate [5] | LH3 activity, % [5]
1 | B1 | LH3 was the only one being able to generate GT activity | none of these recombinant proteins had detectable GGT activity | did not generated GT activity | no LH activity can be found | – | – | – | –
2 | B2 | – | – | – | – | 650 Dpm/plate | 0.1% | <300 Dpm/plate | <5%
3 | B3 | LH3 was the only one being able to generate GT activity | none of these recombinant proteins had detectable GGT activity | did not generated GT activity | no LH activity can be found | – | – | – | –
4 | B4 | – | – | – | – | 360000 Dpm/plate | 47% | <300 Dpm/plate | <5%
5 | B5 | – | – | – | – | 180000 Dpm/plate | 23% | <300 Dpm/plate | <5%
